# Measured values: PMC12269619 (2025)
# Positions count from the first letter of the chain named. Ends that are not written are not given here.
# T1: Biotinylated junctional peptide NPDP19 (Plasmodium falciparum (isolate 3D7), also: biotinylated, position not given here)
# T1 chain: KQPADGNPDPNANPNVDPN
# B1: m43.151 Fab (Fab, V domains shown)
# VH: QVHLVQSGAEVKKPGASVKVSCKASGYTFTSYAIHWVRQAPGQRLEWMGWIKGGNGNTRYSQKFQDRVTITRDTSASTAYMELSSLRSEDTAVYYCALLTVITPDDAFDIWGQGTMVTVSS
# VL: not shown
# B2: P3-21 Fab (m42.127 T99R_H P100Q_H) (Fab, V domains shown)
# VH: B1 VH with H3Q, G53A, T103R, P104Q, A107T
# VL: not shown
# B3: P3-43 Fab (m43.151 P100K_H) (Fab, V domains shown)
# VH: B1 VH with P104K
# VL: not shown
# B4: P3-42 Fab (m43.151 A100cR_H) (Fab, V domains shown)
# VH: B1 VH with A107R
# VL: not shown
# B5: Biotinylated junctional peptide Pep21 (PfCSP peptide 21) (peptide)
# peptide: NPDPNANPNVDPNAN
# modifications: also: biotinylated, position not given here
# B6: m42.127 Fab (Fab, V domains shown)
# VH: B1 VH with H3Q, G53A, A107T
# VL: not shown
# Key:
# [1] = target: T1, Biotinylated junctional peptide NPDP19; experiment: BLI
# PfCSPm [2] = experiment: BLI; KD1
# PfCSPm [3] = experiment: BLI; KD2, second site
# [4] = target: B5; experiment: BLI
# P3-3 = experiment: BLI
# P3-10 = experiment: BLI
# P3-9 = experiment: BLI
# P3-17 = experiment: BLI
# P3-19 = experiment: BLI
# P3-45 = experiment: BLI
# P3-7 = experiment: BLI
Binder,Kd [1] [nM],Kd (PfCSPm [2]) [nM],Kd (PfCSPm [3]) [nM],Kd [4] [nM],Kd (P3-3) [nM],Kd (P3-10) [nM],Kd (P3-9) [nM],Kd (P3-17) [nM],Kd (P3-19) [nM],Kd (P3-45) [nM],Kd (P3-7) [nM]
B1,2.2,38.3,1700,,,,,,,,
B2,2,20.2,1200,18,,,,,,,
B3,1.7,33.9,1700,,,,,,,,
B4,2.6,13,3400,14.5,,,,,,,
B5,,,,,15.4,20.4,21.8,17.8,14.6,19,24
B6,2.2,31.6,2000,,,,,,,,
